“Also recorded” adds a separate entry of the source.
Legend:
[1] = system: L1; conditions: mutant bound to itself; cited from earlier work
[2] = biological target: T1, F3, axonin-1 and TAX-1 (Homo sapiens, UniProt Q02246); conditions: TAX-1; cited from earlier work
T1 sequence (Q02246 31-1012): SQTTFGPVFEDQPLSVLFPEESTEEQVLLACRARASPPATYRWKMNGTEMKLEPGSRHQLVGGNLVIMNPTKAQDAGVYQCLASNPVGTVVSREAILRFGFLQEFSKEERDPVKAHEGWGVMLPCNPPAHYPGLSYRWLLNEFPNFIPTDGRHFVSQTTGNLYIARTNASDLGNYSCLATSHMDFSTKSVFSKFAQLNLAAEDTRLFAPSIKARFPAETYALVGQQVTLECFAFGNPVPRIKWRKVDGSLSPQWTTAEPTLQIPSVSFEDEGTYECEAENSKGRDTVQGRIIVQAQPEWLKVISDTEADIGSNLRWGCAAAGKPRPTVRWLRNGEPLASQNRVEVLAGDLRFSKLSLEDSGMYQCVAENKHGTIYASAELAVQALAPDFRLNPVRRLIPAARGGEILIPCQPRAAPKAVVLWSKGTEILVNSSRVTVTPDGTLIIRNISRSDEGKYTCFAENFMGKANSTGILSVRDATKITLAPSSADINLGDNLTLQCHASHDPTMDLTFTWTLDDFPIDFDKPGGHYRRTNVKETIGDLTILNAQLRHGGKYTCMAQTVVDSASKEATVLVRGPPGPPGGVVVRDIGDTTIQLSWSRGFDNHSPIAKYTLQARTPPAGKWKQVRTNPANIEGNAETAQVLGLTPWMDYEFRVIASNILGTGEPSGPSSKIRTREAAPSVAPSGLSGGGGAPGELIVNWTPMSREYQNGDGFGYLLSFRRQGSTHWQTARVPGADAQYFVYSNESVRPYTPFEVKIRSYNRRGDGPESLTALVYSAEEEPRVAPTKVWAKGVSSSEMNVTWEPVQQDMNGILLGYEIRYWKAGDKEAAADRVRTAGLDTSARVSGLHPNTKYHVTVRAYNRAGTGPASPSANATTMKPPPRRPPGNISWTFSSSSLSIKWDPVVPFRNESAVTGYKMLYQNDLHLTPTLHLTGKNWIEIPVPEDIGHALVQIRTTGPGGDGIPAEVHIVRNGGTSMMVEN

[3] = system: F3, axonin-1 and TAX-1; conditions: F3, axonin-1 (and TAX-1 where stated); cited from earlier work
[4] = system: NP-1; experiment: Binding of L1Fc chimeras to NP-1 expressing COS7 cells (immunofluorescence)
In short: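 Mutant L1Fc chimeras from transfected COS-7 medium, purified by protein A, were cross-linked 1 hr at 37 °C with anti-human Fc (50 μg/ml), used at 10-fold higher concentration than for L1. Incubated on COS7 cells expressing myc-tagged NP-1 lacking cytoplasmic domain; after PFA fixation, bound L1Fc detected by FITC anti-Fc and NP-1 by anti-myc immunofluorescence.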

[5] = system: cortical axons repelled by Sema3A secreted from the ventral spinal cord; experiment: Co-culture of cortical slices and ventral spinal cord explants (axon guidance response to Sema3A); assay type: cell-based, mice; conditions: chimera 3 μg/ml in culture medium
In short: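 Cortical slices from P0–P2 mice were co-cultured in a 3D plasma clot with ventral cervical spinal cord explants, alone or with L1Fc chimeras (3 μg/ml), ODQ (10^−5 M) or 7NI ([…]). After 1–2 DIV and PFA fixation, guidance was scored from −2 (repulsion) to +2 (attraction). Axon number and the three longest fibre lengths were measured in proximal and distal 600 μm regions.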

B1: D598N: L1Fc chimera with missense mutation D598N in Ig domain 6 (protein)
chain: IQIPEEYEGHHVMEPPVITEQSPRRLVVFPTDDISLKCEASGKPEVQFRWTRDGVHFKPKEELGVTVYQSPHSGSFTITGNNSNFAQRFQGIYRCFASNKLGTAMSHEIRLMAEGAPKWPKETVKPVEVEEGESVVLPCNPPPSAEPLRIYWMNSKILHIKQDERVTMGQNGNLYFANVLTSDNHSDYICHAHFPGTRTIIQKEPIDLRVKATNSMIDRKPRLLFPTNSSSHLVALQGQPLVLECIAEGFPTPTIKWLRPSGPMPADRVTYQNHNKTLQLLKVGEEDDGEYRCLAENSLGSARHAYYVTVEAAPYWLHKPQSHLYGPGETARLDCQVQGRPQPEVTWRINGIPVEELAKDQKYRIQRGALILSNVQPSDTMVTQCEARNRHGLLLANAYIYVVQLPAKILTADNQTYMAVQGSTAYLLCKAFGAPVPSVQWLDEDGTTVLQDERFFPYANGTLGIRDLQANDTGRYFCLAANDQNNVTIMANLKVKDATQITQGPRSTIEKKGSRVTFTCQASFDPSLQPSITWRGDGRDLQELGDSDKYFIEDGRLVIHSLDYSDQGNYSCVASTELNVVESRAQLLVVGSPGPVPRLVLSDLHLLTQSQVRVSWSPAEDHNAPIEKYDIEFEDKEMAPEKWYSLGKVPGNQTSTTLKLSPYVHYTFRVTAINKYGPGEPSPVSETVVTPEAAPEKNPVDVKGEGNETTNMVITWKPLRWMDWNAPQVQYRVQWRPQGTRGPWQEQIVSDPFLVVSNTSTFVPYEIKVQAVNSQGKGPEPQVTIGYSGEDYPQAIPELEGIEILNSSAVLVKWRPVDLAQVKGHLRGYNVTYWREGSQRKHSKRHIHKDHVVVPANTTSVILSGLRPYSSYHLEVQAFNGRGSGPASEFTFSTPEGVPGHPEALHLECQSNTSLLLRWQPPLSHNGVLTGYVLSYHPLDEGGKGQLSFNLRDPELRTHNLTDLSPHLRYRFQLQATTKEGPGEAIVREGGTMALSGISDFGNISATAGENYSVVSWVPKEGQCNFRFHILFKALGEEKGGASLSPQYVSYNQSSYTQWDLQPDTDYEIHLFKERMFRHQMAVKTNGTGRVRLPPAGFATE
modifications: left off: a dimerising Fc or GST
effect of mutation on homophilic binding [1]: very modest effect
effect of mutation on heterophilic binding to TAX-1 [2]: though not to TAX-1
effect of mutation on heterophilic binding [3]: significantly reduces
binding to NP-1 expressing cells [4]: bound NP-1 expressing cells
switching of Sema3A repulsion to attraction by L1Fc chimera [5]: able to reverse Sema3A repulsion to attraction; also recorded: efficiently induce switching of Sema3A repulsion to attraction; also recorded: switched Sema3A from repulsion to attraction to the same extent as wild type L1Fc
